# Test results reported in article PMC5746218.
# Biological target: PitA (Haloferax volcanii) (Haloferax volcanii (endogenous in strain H26))
# Test: SEC; Sephacryl S-300 gel filtration of purified PitA against standard proteins (thyroglobulin, ferritin, KatG, BSA, cytochrome c554, cytochrome c)
substance,measurement,value
PitA (Haloferax volcanii) (enzyme),stoichiometry N (molecules of the subunit),> 10
